Assay results reported in paper PMC10936212.

Tests used:
[1] = biological target: CosR (Campylobacter jejuni) (UniProt A0A3H9R6A1); test: fluorescence polarization; conditions: FP: 10 mM PBS pH 7.4, 5 nM fluoresceinated DNA, 1 ug poly(dI-dC), 25 C
[2] = biological target: Campylobacter jejuni CosR regulator (Campylobacter jejuni); test: crystal structure; CosR (320 uM) with 21 bp DNA2 duplex (192 uM), vapor diffusion, Na-MES pH 6.5, 2.20 Å
[3] = biological target: Campylobacter jejuni CosR regulator (Campylobacter jejuni); test: crystal structure; CosR (8 mg/mL) with 21 bp DNA1 duplex (2.6 mg/mL), vapor diffusion, Na-MES pH 6.5, 2.90 Å; the dimer is formed by a crystallographic symmetry operator
[4] = biological target: Campylobacter jejuni CosR regulator (Campylobacter jejuni); test: cryo-EM structure; single-particle cryo-EM of 20 uM CosR incubated 2 h with 10 uM 40 bp ds-DNA; the class of DNA-free particles (apo-CosR) sorted in silico (build and retrieve), 3.77 Å

Row | stoichiometry N [2] | stoichiometry N [3] | stoichiometry N [4] | Substance | Kd [1]
1 |  |  |  | TATTAACCAAAATTAAGATAT (double strand) [DNA1 (fluorescein)] | 4.5 nM
2 | 2 | 2 | 2 | Campylobacter jejuni CosR regulator (natural protein) | 
3 |  |  |  | AATTAAGATATTATTAACCAA (double strand) [DNA2 (fluorescein)] | 2.5 nM
